The numbers were not newly measured in article PMC10299984 (Diabetes Therapy, 2023), which cites them from elsewhere.

The conditions of the series: 36 healthy participants.

Turning to insulin glargine [iGlar], the INS-tmax was 12 h.
